Assay results taken from US20230059836A1 (NANJING LEGEND BIOTECH, published 2023).

B1: BCP-73 (bispecific antibody)
chain 1: not shown
chain 2: EIVLTQSPATLSLSPGERATLSCRASKGVSTSGYSYLHWYQQKPGQAPRLLIYLASYLESGVPARFSGSGSGTDFTLTISSLEPEDFAVYYCQHSRDLPLTFGGGTKVEIKRTVAAPSVFIFPPSDEQLKSGTASVVCLLNNFYPREAKVQWKVDNALQSGNSQESVTEQDSKDSTYSLSSTLTLSKADYEKHKVYACEVTHQGLSSPVTKSFNRGEC
B2: BCP-75 (bispecific antibody)
chain 1: not shown
chain 2: B1 chain 2
B3: BCP-74 (bispecific antibody)
chain 1: not shown
chain 2: B1 chain 2
B4: BCP-78 (bispecific antibody)
chain 1: EVQLVESGGGVVQPGRSLRLSCAASGRTITTITMGWFRQAPGKGREFVASHSWTDNNPYYADSVKGRFTISRDNAKNTLYLQMNSLRPEDTAVYYCAATARRSFVGRQWYTEARQYDYWGQGTLVTVSSEPKSSDKTHTSPPSPQVQLVESGGGVVQPGRSLRLDCKASGITFSNSGMHWVRQAPGKGLEWVAVIWYDGSKRYYADSVKGRFTISRDNSKNTLFLQMNSLRAEDTAVYYCATNDDYWGQGTLVTVSSASTKGPSVFPLAPCSRSTSESTAALGCLVKDYFPEPVTVSWNSGALTSGVHTFPAVLQSSGLYSLSSVVTVPSSSLGTKTYTCNVDHKPSNTKVDKRVESKYGPPCPPCPAPEFLGGPSVFLFPPKPKDTLMISRTPEVTCVVVDVSQEDPEVQFNWYVDGVEVHNAKTKPREEQFNSTYRVVSVLTVLHQDWLNGKEYKCKVSNKGLPSSIEKTISKAKGQPREPQVYTLPPSQEEMTKNQVSLTCLVKGFYPSDIAVEWESNGQPENNYKTTPPVLDSDGSFFLYSRLVDKSRWQEGNVFSCSVMHEALHNHYTQKSLSLSLGK
chain 2: not shown

Molecular target: human PD-1 expressed on CHO cells (human, UniProt Q15116 25-288)
Sequence (Q15116 25-288): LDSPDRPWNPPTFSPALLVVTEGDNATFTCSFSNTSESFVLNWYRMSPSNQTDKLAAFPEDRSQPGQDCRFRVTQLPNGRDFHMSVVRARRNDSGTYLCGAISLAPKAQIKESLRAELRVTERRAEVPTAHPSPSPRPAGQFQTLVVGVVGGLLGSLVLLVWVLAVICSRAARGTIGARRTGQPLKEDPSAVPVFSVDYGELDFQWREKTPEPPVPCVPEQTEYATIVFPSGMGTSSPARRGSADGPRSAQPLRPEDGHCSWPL
Test: cell-based or functional assay

Row | EC50 (nM), NFAT luciferase, PD-1/NFAT Reporter-Jurkat cells with CHO-K1 expressing human PD-L1 and TCR activator | Binder
1 | 1.6 nM | B1
2 | 5.5 nM | B2
3 | 4.3 nM | B3
4 | 8.9 nM | B4

Molecular target: CTLA-4-Fc (GenScript, Z03373-50) (UniProt P16410 36-161)
Sequence (P16410 36-161 limits assumed, one chain of several): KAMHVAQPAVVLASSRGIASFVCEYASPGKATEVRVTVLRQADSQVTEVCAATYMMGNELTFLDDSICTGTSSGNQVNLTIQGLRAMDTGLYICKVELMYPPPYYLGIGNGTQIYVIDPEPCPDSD
Test: cell-based or functional assay

Row | EC50 (nM), IL-2 secretion, CD4+ T cells with CHO-K1/human CD80 and CTLA-4-Fc | Binder
5 | 12.1 nM | B1
6 | 12.1 nM | B2
7 | 14.3 nM | B3
8 | 8.4 nM | B4
